In PMC8010706:
Substitutions are numbered along the chain they refer to. Numbers in names are those of the source.

T1: MBP-Sbh1 full length, P52870
T1 chain: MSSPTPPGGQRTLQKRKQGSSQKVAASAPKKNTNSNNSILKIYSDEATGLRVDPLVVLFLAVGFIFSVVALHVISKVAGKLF

B1: His-tagged ySgt2-C (ySgt2 222-346), Q12118 M315D (protein)
chain: SLNLEKTVPEQSRDADVDASQGASAGGLPDLGSLLGGGLGGLMNNPQLMQAAQKMMSNPGAMQNIQKMMQDPSIRQMAEGFASGGGTPNLSDLDNNPALRNMAGNLFGGAGAQSTDETPDNENKQ
B2: His-tagged ySgt2-C (ySgt2 222-346), Q12118 I286D (protein)
chain: B1 chain with I65D, D94M
B3: His-tagged ySgt2-C (ySgt2 222-346), Q12118 L327D (protein)
chain: B1 chain with D94M, L106D
B4: His-tagged ySgt2-C (ySgt2 222-346), Q12118 L320D (protein)
chain: B1 chain with D94M, L99D
B5: His-tagged ySgt2-C (ySgt2 222-346), Q12118 M290D (protein)
chain: B1 chain with M69D, D94M
B6: His-tagged ySgt2-C (ySgt2 222-346), Q12118 I295D (protein)
chain: B1 chain with I74D, D94M
B7: His-tagged ySgt2-C (ySgt2 222-346), Q12118 M323D (protein)
chain: B1 chain with D94M, M102D
B8: His-tagged ySgt2-C (ySgt2 222-346), Q12118 M277D (protein)
chain: B1 chain with M56D, D94M
B9: His-tagged hSgt2-C (hSgt2 213-313), O43765 L224D; F280D (protein)
chain: TGGVGSFDIAGDLNNPGFMSMASNLMNNPQIQQLMSGMISGGNNPLGTPGTSPSQNDLASLIQAGQQDAQQMQQQNPELIEQLRSQIRSRTPSASNDDQQE
B10: His-tagged hSgt2-C (hSgt2 213-313), O43765 L295D (protein)
chain: B9 chain with D12L, D68F, L83D
B11: His-tagged hSgt2-C (hSgt2 213-313), O43765 M233D; F280D (protein)
chain: B9 chain with D12L, M21D
B12: His-tagged hSgt2-C (hSgt2 213-313), O43765 M233D; L295D (protein)
chain: B9 chain with D12L, M21D, D68F, L83D
B13: His-tagged hSgt2-C (hSgt2 213-313), O43765 L224D; L295D (protein)
chain: B9 chain with D68F, L83D
B14: His-tagged hSgt2-C (hSgt2 213-313), O43765 F280D (protein)
chain: B9 chain with D12L
B15: His-tagged hSgt2-C (hSgt2 213-313), O43765 M247D (protein)
chain: B9 chain with D12L, M35D, D68F
B16: His-tagged hSgt2-C (hSgt2 213-313), O43765 L224D (protein)
chain: B9 chain with D68F
B17: MBP-Sbh1 full length (natural protein)
chain: T1 chain

Target: MBP-Sbh1 full length (UniProt P52870)
Assay: pull-down (Ni-NTA capture after coexpression, Coomassie quantification)
Details: experiments performed 3 to 4 times; parent: 1

Row | ratio to parent | Molecule
1 | 0.27 | His-tagged ySgt2-C (ySgt2 222-346) (from UniProt Q12118) H4A
2 | 0.55 | His-tagged hSgt2-C (hSgt2 213-313) (from UniProt O43765) H4A
3 | 0.67 | His-tagged hSgt2-C (hSgt2 213-313) (from UniProt O43765) H5A
4 | 0.27 | His-tagged hSgt2-C (hSgt2 213-313) (from UniProt O43765) H2/3A
5 | 0.32 | His-tagged ySgt2-C (ySgt2 222-346) (from UniProt Q12118) H5A
6 | 0.21 | His-tagged hSgt2-C (hSgt2 213-313) (from UniProt O43765) H1A
7 | 0.03 | His-tagged ySgt2-C (ySgt2 222-346) (from UniProt Q12118) H1A
8 | 0.63 | His-tagged hSgt2-C (hSgt2 213-313) (from UniProt O43765) H0A
9 | 0.1 | His-tagged ySgt2-C (ySgt2 222-346) (from UniProt Q12118) H2A
10 | 0.19 | His-tagged ySgt2-C (ySgt2 222-346) (from UniProt Q12118) H3A

Target: T1, MBP-Sbh1 full length, P52870
Assay: as above
Details: chain shown with the change; capture assay repeated three times; parent: 1

Row | ratio to parent | Molecule
11 | 0.34 | B1
12 | 0.13 | B2
13 | 0.4 | B3
14 | 0.23 | B4
15 | 0.18 | B5
16 | 0.21 | B6
17 | 0.29 | B7
18 | 0.14 | B8
19 | 0.21 | B9
20 | 0.86 | B10
21 | 0.59 | B11
22 | 0.44 | B12
23 | 0.16 | B13
24 | 0.69 | B14
25 | 0.68 | B15
26 | 0.71 | B16

Target: hSgt2 M233D (Homo sapiens) (UniProt O43765)
Assay: pull-down; capture assay: His-tagged Sgt2 construct coexpressed with MBP-Sbh1 in E. coli; lysate incubated in batch with Ni-NTA resin at 4 °C for 1 h, washed with 20 mM Tris, 150 mM NaCl, 25 mM imidazole, 10 mM BME, pH 7.5, eluted with 300 mM imidazole; Coomassie-stained gel, MBP-Sbh1/Sgt2 ratio normalised to wild type
Details: not given

Row | percent reduction of binding relative to wild type [%] | Molecule
27 | 36 | B17
